# Data as given in IntAct's records for PubMed 12445118.
# B1: Coronatine-insensitive protein 1 (Arabidopsis thaliana (Mouse-ear cress)), O04197 (parent)
# chain: MEDPDIKRCKLSCVATVDDVIEQVMTYITDPKDRDSASLVCRRWFKIDSETREHVTMALCYTATPDRLSRRFPNLRSLKLKGKPRAAMFNLIPENWGGYVTPWVTEISNNLRQLKSVHFRRMIVSDLDLDRLAKARADDLETLKLDKCSGFTTDGLLSIVTHCRKIKTLLMEESSFSEKDGKWLHELAQHNTSLEVLNFYMTEFAKISPKDLETIARNCRSLVSVKVGDFEILELVGFFKAAANLEEFCGGSLNEDIGMPEKYMNLVFPRKLCRLGLSYMGPNEMPILFPFAAQIRKLDLLYALLETEDHCTLIQKCPNLEVLETRNVIGDRGLEVLAQYCKQLKRLRIERGADEQGMEDEEGLVSQRGLIALAQGCQELEYMAVYVSDITNESLESIGTYLKNLCDFRLVLLDREERITDLPLDNGVRSLLIGCKKLRRFAFYLRQGGLTDLGLSYIGQYSPNVRWMLLGYVGESDEGLMEFSRGCPNLQKLEMRGCCFSERAIAAAVTKLPSLRYLWVQGYRASMTGQDLMQMARPYWNIELIPSRRVPEVNQQGEIREMEHPAHILAYYSLAGQRTDCPTTVRVLKEPI
# partner: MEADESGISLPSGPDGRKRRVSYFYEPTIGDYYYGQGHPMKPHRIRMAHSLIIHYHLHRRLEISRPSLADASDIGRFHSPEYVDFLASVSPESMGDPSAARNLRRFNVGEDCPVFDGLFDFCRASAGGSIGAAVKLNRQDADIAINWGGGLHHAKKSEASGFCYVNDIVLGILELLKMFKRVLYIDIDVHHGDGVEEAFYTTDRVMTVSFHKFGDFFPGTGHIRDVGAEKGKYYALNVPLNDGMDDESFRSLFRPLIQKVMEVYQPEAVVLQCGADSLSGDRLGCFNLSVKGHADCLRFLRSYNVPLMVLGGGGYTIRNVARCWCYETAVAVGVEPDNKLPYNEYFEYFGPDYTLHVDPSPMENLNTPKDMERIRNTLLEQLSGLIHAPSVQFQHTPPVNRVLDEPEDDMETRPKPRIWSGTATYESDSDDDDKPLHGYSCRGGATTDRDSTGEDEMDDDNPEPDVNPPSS
# B2: Coronatine-insensitive protein 1 (Arabidopsis thaliana (Mouse-ear cress)), O04197 (parent)
# chain: B1 chain
# Variants of: B1
# Conditions: with hda6_arath HDA6, Q9FML2
row,effect of a mutation on the interaction,Variant
1,decreasing interaction,MEDPDIKRCKLSCVATVDDVIEQVMTYITDPKDRDSASLVCRRAFKIDSETREHVTMALCYTATPDRLSRRFPNLRSLKLKGKPRAAMFNLIPENWGGYVTPWVTEISNNLRQLKSVHFRRMIVSDLDLDRLAKARADDLETLKLDKCSGFTTDGLLSIVTHCRKIKTLLMEESSFSEKDGKWLHELAQHNTSLEVLNFYMTEFAKISPKDLETIARNCRSLVSVKVGDFEILELVGFFKAAANLEEFCGGSLNEDIGMPEKYMNLVFPRKLCRLGLSYMGPNEMPILFPFAAQIRKLDLLYALLETEDHCTLIQKCPNLEVLETRNVIGDRGLEVLAQYCKQLKRLRIERGADEQGMEDEEGLVSQRGLIALAQGCQELEYMAVYVSDITNESLESIGTYLKNLCDFRLVLLDREERITDLPLDNGVRSLLIGCKKLRRFAFYLRQGGLTDLGLSYIGQYSPNVRWMLLGYVGESDEGLMEFSRGCPNLQKLEMRGCCFSERAIAAAVTKLPSLRYLWVQGYRASMTGQDLMQMARPYWNIELIPSRRVPEVNQQGEIREMEHPAHILAYYSLAGQRTDCPTTVRVLKEPI [W44A]
2,decreasing interaction,MEDPDIKRCKLSCVATVDDVIEQVMTYITDPKDRDSASLVCRRWFKIDSETREHVTMALCYTATPDRLSRRFPNLRSLKLKGKPRAAMFNLIPENWGGYVTPWVTEISNNLRQLKSVHFRRMIVSDLDLDRLAKARADDLETLKLDKCSGFTTDGLLSIVTHCRKIKTLLMEESSFSEKDGKWLHELAQHNTSLEVLNFYMTEFAKISPKDLETIARNCRSLVSVKVGDFEILELVGFFKAAANFEEFCGGSLNEDIGMPEKYMNLVFPRKLCRLGLSYMGPNEMPILFPFAAQIRKLDLLYALLETEDHCTLIQKCPNLEVLETRNVIGDRGLEVLAQYCKQLKRLRIERGADEQGMEDEEGLVSQRGLIALAQGCQELEYMAVYVSDITNESLESIGTYLKNLCDFRLVLLDREERITDLPLDNGVRSLLIGCKKLRRFAFYLRQGGLTDLGLSYIGQYSPNVRWMLLGYVGESDEGLMEFSRGCPNLQKLEMRGCCFSERAIAAAVTKLPSLRYLWVQGYRASMTGQDLMQMARPYWNIELIPSRRVPEVNQQGEIREMEHPAHILAYYSLAGQRTDCPTTVRVLKEPI [L245F]

# Variants of: B2
# Conditions: with rbs3b_arath RBCS-3B
row,effect of a mutation on the interaction,Variant
1,decreasing interaction,MEDPDIKRCKLSCVATVDDVIEQVMTYITDPKDRDSASLVCRRWFKIDSETREHVTMALCYTATPDRLSRRFPNLRSLKLKGKPRAAMFNLIPENWGGYVTPWVTEISNNLRQLKSVHFRRMIVSDLDLDRLAKARADDLETLKLDKCSGFTTDGLLSIVTHCRKIKTLLMEESSFSEKDGKWLHELAQHNTSLEVLNFYMTEFAKISPKDLETIARNCRSLVSVKVGDFEILELVGFFKAAANFEEFCGGSLNEDIGMPEKYMNLVFPRKLCRLGLSYMGPNEMPILFPFAAQIRKLDLLYALLETEDHCTLIQKCPNLEVLETRNVIGDRGLEVLAQYCKQLKRLRIERGADEQGMEDEEGLVSQRGLIALAQGCQELEYMAVYVSDITNESLESIGTYLKNLCDFRLVLLDREERITDLPLDNGVRSLLIGCKKLRRFAFYLRQGGLTDLGLSYIGQYSPNVRWMLLGYVGESDEGLMEFSRGCPNLQKLEMRGCCFSERAIAAAVTKLPSLRYLWVQGYRASMTGQDLMQMARPYWNIELIPSRRVPEVNQQGEIREMEHPAHILAYYSLAGQRTDCPTTVRVLKEPI [L245F]
2,decreasing interaction,MEDPDIKRCKLSCVATVDDVIEQVMTYITDPKDRDSASLVCRRAFKIDSETREHVTMALCYTATPDRLSRRFPNLRSLKLKGKPRAAMFNLIPENWGGYVTPWVTEISNNLRQLKSVHFRRMIVSDLDLDRLAKARADDLETLKLDKCSGFTTDGLLSIVTHCRKIKTLLMEESSFSEKDGKWLHELAQHNTSLEVLNFYMTEFAKISPKDLETIARNCRSLVSVKVGDFEILELVGFFKAAANLEEFCGGSLNEDIGMPEKYMNLVFPRKLCRLGLSYMGPNEMPILFPFAAQIRKLDLLYALLETEDHCTLIQKCPNLEVLETRNVIGDRGLEVLAQYCKQLKRLRIERGADEQGMEDEEGLVSQRGLIALAQGCQELEYMAVYVSDITNESLESIGTYLKNLCDFRLVLLDREERITDLPLDNGVRSLLIGCKKLRRFAFYLRQGGLTDLGLSYIGQYSPNVRWMLLGYVGESDEGLMEFSRGCPNLQKLEMRGCCFSERAIAAAVTKLPSLRYLWVQGYRASMTGQDLMQMARPYWNIELIPSRRVPEVNQQGEIREMEHPAHILAYYSLAGQRTDCPTTVRVLKEPI [W44A]

# Variants of: B2
# Conditions: with skp1a_arath SKP1A
row,effect of a mutation on the interaction,Variant
1,decreasing interaction,MEDPDIKRCKLSCVATVDDVIEQVMTYITDPKDRDSASLVCRRAFKIDSETREHVTMALCYTATPDRLSRRFPNLRSLKLKGKPRAAMFNLIPENWGGYVTPWVTEISNNLRQLKSVHFRRMIVSDLDLDRLAKARADDLETLKLDKCSGFTTDGLLSIVTHCRKIKTLLMEESSFSEKDGKWLHELAQHNTSLEVLNFYMTEFAKISPKDLETIARNCRSLVSVKVGDFEILELVGFFKAAANLEEFCGGSLNEDIGMPEKYMNLVFPRKLCRLGLSYMGPNEMPILFPFAAQIRKLDLLYALLETEDHCTLIQKCPNLEVLETRNVIGDRGLEVLAQYCKQLKRLRIERGADEQGMEDEEGLVSQRGLIALAQGCQELEYMAVYVSDITNESLESIGTYLKNLCDFRLVLLDREERITDLPLDNGVRSLLIGCKKLRRFAFYLRQGGLTDLGLSYIGQYSPNVRWMLLGYVGESDEGLMEFSRGCPNLQKLEMRGCCFSERAIAAAVTKLPSLRYLWVQGYRASMTGQDLMQMARPYWNIELIPSRRVPEVNQQGEIREMEHPAHILAYYSLAGQRTDCPTTVRVLKEPI [W44A]

# Variants of: B2
# Conditions: with skp1b_arath SKP1B
row,effect of a mutation on the interaction,Variant
1,decreasing interaction,MEDPDIKRCKLSCVATVDDVIEQVMTYITDPKDRDSASLVCRRAFKIDSETREHVTMALCYTATPDRLSRRFPNLRSLKLKGKPRAAMFNLIPENWGGYVTPWVTEISNNLRQLKSVHFRRMIVSDLDLDRLAKARADDLETLKLDKCSGFTTDGLLSIVTHCRKIKTLLMEESSFSEKDGKWLHELAQHNTSLEVLNFYMTEFAKISPKDLETIARNCRSLVSVKVGDFEILELVGFFKAAANLEEFCGGSLNEDIGMPEKYMNLVFPRKLCRLGLSYMGPNEMPILFPFAAQIRKLDLLYALLETEDHCTLIQKCPNLEVLETRNVIGDRGLEVLAQYCKQLKRLRIERGADEQGMEDEEGLVSQRGLIALAQGCQELEYMAVYVSDITNESLESIGTYLKNLCDFRLVLLDREERITDLPLDNGVRSLLIGCKKLRRFAFYLRQGGLTDLGLSYIGQYSPNVRWMLLGYVGESDEGLMEFSRGCPNLQKLEMRGCCFSERAIAAAVTKLPSLRYLWVQGYRASMTGQDLMQMARPYWNIELIPSRRVPEVNQQGEIREMEHPAHILAYYSLAGQRTDCPTTVRVLKEPI [W44A]
